According to patent US20220340655A1 (OPSIDIO, published 2022):

Target: human stem cell factor isoform SCF248 (human, UniProt P21583 26-273)
Assay: flow cytometry on S1/S14 hSCF248 cells; printed as BC50 (50% maximal binding)

human stem cell factor isoform SCF248, sequence (P21583 26-189): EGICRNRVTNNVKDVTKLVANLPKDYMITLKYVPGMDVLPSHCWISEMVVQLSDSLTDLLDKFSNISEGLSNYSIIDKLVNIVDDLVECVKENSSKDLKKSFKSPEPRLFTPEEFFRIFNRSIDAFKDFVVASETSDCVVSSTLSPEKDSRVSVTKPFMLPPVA

EC50: 0.9 µg/mL
B1: 5H10 VH3/VK3 (antibody, human IgG4, V domains shown)
VH: QVQLVQSGAEVKKPGSSVKVSCKSSGYAFSSYWMNWVRQRPGQGLEWIGQIYPGDGDTHYNGKFKGKATLTADKSTSTAYMELSSLRSEDTAVYFCSSSNWVGSYWGQGTLVTVSS
VL: DVVMTQSPLSLPVTLGQPASISCKSSQSLLESDGKTYLNWLQQRPGQSPRRLIYLVSRLDSGVPDRFSGSGSGTDFTLKISRVEAEDVGVYYCWQGTHLPQTFGGGTKVEIK
notes: Humanized; only variable regions are tied to the name
